{
  "source": "patent US20130224191A1",
  "about": "“NOTUM PROTEIN MODULATORS AND METHODS OF USE” (priority 2010, published 2013)",
  "key": {"[1]": {"target": "T1, porcine pancreatic lipase (Sus scrofa, UniProt P00591)", "T1 construct": "purchased Sigma Aldrich", "T1 sequence (P00591 1-450)": "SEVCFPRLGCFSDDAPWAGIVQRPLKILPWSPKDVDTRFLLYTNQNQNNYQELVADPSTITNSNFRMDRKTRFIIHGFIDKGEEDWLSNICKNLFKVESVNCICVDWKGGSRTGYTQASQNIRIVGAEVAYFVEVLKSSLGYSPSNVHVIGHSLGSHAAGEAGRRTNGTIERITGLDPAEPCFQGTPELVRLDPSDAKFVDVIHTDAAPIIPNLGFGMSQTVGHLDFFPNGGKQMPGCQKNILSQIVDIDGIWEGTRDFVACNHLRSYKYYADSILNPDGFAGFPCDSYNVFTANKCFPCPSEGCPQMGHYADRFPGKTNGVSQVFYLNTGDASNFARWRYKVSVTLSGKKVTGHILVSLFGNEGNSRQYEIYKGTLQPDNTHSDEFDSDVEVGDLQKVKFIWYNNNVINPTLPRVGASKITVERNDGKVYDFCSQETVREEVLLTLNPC", "test": "Inhibition of porcine pancreatic lipase (Tween 20)", "type": "biochemical", "procedure": "(§1) Briefly, recombinant hNotum (1 μg/well) was added to an assay buffer containing 50 mM Tris, pH 7.4, 33.3 mM CaCl2, and 0.33% Tween-20. When the Tween 20 monolauryl group is cleaved by lipases (e.g. hNotum), the free fatty acid forms an insoluble complex with the Ca^2+ cations resulting in a turbid solution, the OD of which can be measured at 405 nm to provide a measure of lipase activity. As a positive control, the activity of porcine pancreatic lipase (Sigma Aldrich) was measured in the same assay.\n(§2) In order to take advantage of this enzymatic property and further exemplify the properties of the present invention, an assay was run to determine the effects of Notum modulators on the lipolytic activity of Notum. To that end, various concentrations of SC2.D2.2 were preincubated with hNotum for a set period prior to adding the mixture to the assay buffer and measuring the resulting enzymatic activity as described above. The results of the assay are graphically represented in FIG. 20"}, "human Notum D141N, D141S [2]": {"target": "T2, human Notum D141N, D141S (Homo sapiens, UniProt Q6P988, D141N)", "T2 construct": "made in house", "T2 sequence (Q6P988 20-496 D141N)": "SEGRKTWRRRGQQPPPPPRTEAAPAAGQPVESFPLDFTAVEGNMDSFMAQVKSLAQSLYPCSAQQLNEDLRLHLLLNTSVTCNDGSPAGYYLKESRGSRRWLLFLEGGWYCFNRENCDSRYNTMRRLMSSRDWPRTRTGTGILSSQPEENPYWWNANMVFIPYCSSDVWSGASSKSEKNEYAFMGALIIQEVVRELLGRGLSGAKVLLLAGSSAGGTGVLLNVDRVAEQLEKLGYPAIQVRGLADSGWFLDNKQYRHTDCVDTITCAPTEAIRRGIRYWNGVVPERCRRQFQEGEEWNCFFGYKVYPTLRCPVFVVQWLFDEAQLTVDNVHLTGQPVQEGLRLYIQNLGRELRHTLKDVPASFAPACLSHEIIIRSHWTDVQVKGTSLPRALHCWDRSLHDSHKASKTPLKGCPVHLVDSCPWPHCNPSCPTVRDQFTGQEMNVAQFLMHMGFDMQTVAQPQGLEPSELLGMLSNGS", "test": "Neutralization of point mutated human Notum, TCF assay", "type": "cell-based", "details": "human D141N or D141S", "from_the_text": "(§3) Similarly, the macaque residue at this position was point mutated to the human residue (N141D). […] However, these point mutants differed in their ability to be neutralized by SC2.D2.2 (FIG. 26)."}, "hNotum [3]": {"target": "T3, hNotum (Homo sapiens, UniProt Q6P988)", "T3 construct": "8x-His; Strep-tag II; IgK signal peptide/leader of the pSEC-CAG vector (N); made in house; host or cells: HEK293T (adherent) / suspension 293 cells", "T3 sequence (Q6P988 20-496)": "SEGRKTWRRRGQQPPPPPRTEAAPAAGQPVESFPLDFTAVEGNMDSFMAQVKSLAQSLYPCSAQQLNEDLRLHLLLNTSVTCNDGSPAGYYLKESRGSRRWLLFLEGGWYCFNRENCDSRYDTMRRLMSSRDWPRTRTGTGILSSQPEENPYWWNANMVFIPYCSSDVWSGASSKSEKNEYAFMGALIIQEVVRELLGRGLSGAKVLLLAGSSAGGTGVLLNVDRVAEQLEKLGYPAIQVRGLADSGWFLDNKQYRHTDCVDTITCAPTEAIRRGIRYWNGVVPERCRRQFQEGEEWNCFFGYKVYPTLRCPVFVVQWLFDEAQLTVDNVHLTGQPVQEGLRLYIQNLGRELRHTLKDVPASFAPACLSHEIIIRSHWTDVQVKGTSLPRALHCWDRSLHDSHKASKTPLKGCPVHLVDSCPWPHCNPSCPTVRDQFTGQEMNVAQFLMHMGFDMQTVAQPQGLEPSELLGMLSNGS", "test": "Inhibition of hNotum esterase activity", "type": "biochemical", "details": "preincubation with hNotum", "procedure": "Briefly, PNPA or PNPB were dissolved/diluted in isopropanol to final concentrations of 10 mM. These substrate solutions were diluted 1:10 into assay buffer (0.1% gum arabic, 2.3 mg/mL sodium dexoycholate, 1×PBS) and incubated with defined amounts of hNotum enzyme, and the enzymatic release of the chromophore p-nitrophenol monitored by absorbance measurements at 405 nm.\nThe results presented immediately above indicate that the measured esterase activity may be used to provide an assay that allows for the further characterization of the disclosed Notum modulators. […] As may be seen in FIG. 18A an increase in hNotum levels increases measured enzymatic activity even, to some extent, in the case where the SC2.D2.2 antibody is present. Conversely, FIG. 18B provides a dose response curve of measured enzymatic activity where the amount of hNotum is fixed at 1 μg/mL and the concentration of SC2.D2.2 is varied. […] In contrast a control antibody (MOPC) has no effect on the esterase activity of Notum (data not shown)."}, "human Notum D141N, D141S [4]": {"tested_on": "human Notum D141N, D141S", "test": "Neutralization of point mutated human Notum, 4-MUH assay", "type": "biochemical", "procedure": "(§4) In addition to the assays described in Examples 23 and 24, a fluorescent esterase substrate, 4-methylumbelliferyl heptanoate (Sigma), can be used to measure the activity of hydrolases using standard assay conditions (Richardson and Smith, 2007, PMID: 17620441; Jacks and Kircher, 1967, PMID: 5582971). Briefly, 4-MUH was dissolved in DMSO to a final concentration of 1.2 mM. This substrate was diluted 1:10 into assay buffer (0.1M Tris, pH 7.5, 50 mM NaCl, 0.05% Brij) and incubated with defined amounts of Notum enzyme or point-mutated Notum enzymes, and enzymatic release of the fluorescent molecule 4-methylumbelliferone monitored (355 nm excitation, 460 nm emission) using a Wallac Victor3 Multilabel Counter (Perkin Elmer).\nas §3"}, "hNotum [5]": {"target": "T3, hNotum", "test": "Inhibition of hNotum lipase activity (Tween 20)", "type": "biochemical", "details": "preincubation, various concentrations", "procedure": "as §1, §2"}, "macaque Notum N141D": {"tested_on": "macaque Notum N141D", "test": "Neutralization of point mutated macaque Notum, 4-MUH assay", "type": "biochemical", "procedure": "as §4, §3"}},
  "data": [
    {"molecule": "SC2.D2.2 (antibody, V domains shown, also called murine SC2.D2.2) VH: DVQLVESGGGLVQPGGSRKISCAASGFTFSSYGMHWVRQAPEKGLEWVAYISSSTVTTYYADTVKGRFTISRDNANNTLFLQMTSLRSEDTAMYYCSRQNWDGGYFDVWGAGTTVTVSS VL: DIVLTQSLASLAVSLGQRATISCRASKSVSSSGYSYMHWYQQKPGQPPKLLIYLASNLESGVPARFSGSGSGTDFTLNIHPVEEEDAATYYCQHSRALPLTFGAGTKLELKR", "values": [
      {"measurement": "effect on lipase activity of porcine pancreatic lipase", "setting": "[1]", "result": "not severely impacting the lipase activity"},
      {"measurement": "neutralization of mutant Notum protein", "setting": "human Notum D141N, D141S [2]", "result": "eliminated the ability of SC2.D2.2 to neutralize the mutant Notum protein"},
      {"measurement": "effect on esterase activity of hNotum", "setting": "hNotum [3]", "result": "greatly reduced esterase activity"},
      {"measurement": "neutralization of mutant Notum protein", "setting": "human Notum D141N, D141S [4]", "result": "eliminated the ability of SC2.D2.2 to neutralize the resultant protein"},
      {"measurement": "effect on lipase activity of Notum", "setting": "hNotum [5]", "result": "substantially eliminate the lipase activity of Notum"},
      {"measurement": "neutralization of mutant Notum protein", "setting": "macaque Notum N141D", "result": "enabled the antibody to neutralize the mutant protein"}
    ]}
  ]
}
